Assay results published in paper PMC3762824.

Assays:
[1] = target: Argonaute 2 (human (endogenous in U937, U1, J1.1, HEK293T)) (UniProt Q9UKV8)
[2] = target: Argonaute 2 (human (endogenous in U937, U1, J1.1, HEK293T)) (UniProt Q9UKV8); remark: listed apart in the source

Sequence of UniProt Q9UKV8 (Q9UKV8 whole entry): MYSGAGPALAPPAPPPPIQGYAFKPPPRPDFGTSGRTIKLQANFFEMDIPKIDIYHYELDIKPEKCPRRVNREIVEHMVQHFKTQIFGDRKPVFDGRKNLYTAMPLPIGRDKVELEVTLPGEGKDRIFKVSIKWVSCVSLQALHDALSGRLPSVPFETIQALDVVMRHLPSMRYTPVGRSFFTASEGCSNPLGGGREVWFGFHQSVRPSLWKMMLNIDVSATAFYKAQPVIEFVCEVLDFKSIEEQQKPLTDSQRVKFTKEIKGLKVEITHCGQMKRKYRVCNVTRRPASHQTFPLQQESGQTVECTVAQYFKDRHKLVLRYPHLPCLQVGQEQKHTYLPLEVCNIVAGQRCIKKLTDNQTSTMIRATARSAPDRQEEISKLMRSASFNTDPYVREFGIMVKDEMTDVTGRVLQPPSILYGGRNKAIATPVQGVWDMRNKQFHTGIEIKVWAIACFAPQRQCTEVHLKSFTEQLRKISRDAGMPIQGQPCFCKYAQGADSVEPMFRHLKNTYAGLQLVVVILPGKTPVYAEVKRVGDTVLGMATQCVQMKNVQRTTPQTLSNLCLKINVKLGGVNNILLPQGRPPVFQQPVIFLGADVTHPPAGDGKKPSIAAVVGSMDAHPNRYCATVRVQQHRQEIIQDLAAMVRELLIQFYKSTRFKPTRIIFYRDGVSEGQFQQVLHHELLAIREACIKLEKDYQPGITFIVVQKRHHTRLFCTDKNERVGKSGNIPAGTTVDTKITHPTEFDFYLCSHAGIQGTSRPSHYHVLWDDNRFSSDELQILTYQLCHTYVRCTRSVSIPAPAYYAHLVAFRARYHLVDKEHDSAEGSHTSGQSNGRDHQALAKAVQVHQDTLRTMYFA

| Substance | slicer assay: cleavage of 32P-labelled let-7a RNA by Ago2 immunoprecipitates from U937/Nef-EYFP cells compared to U937/EYFP cells [1] [%] | RLuc-let7a reporter luciferase activity against the empty vector, U937 or HEK293T cells co-transfected with the Nef expression vector [2] [%] |
| --- | --- | --- |
| Nef-EYFP fusion protein (natural protein) | < 50 | – |
| wild type Nef (natural protein) | – | 70 |
